Measured values taken from patent US20240124586A1 (WUXI BIOLOGICS IRELAND, published 2024).
Like-named read-outs stand apart in the source and are kept apart here.

Tests used:
[1] = molecular target: T1, human PD-1 on engineered CHO-S cells (W305-CHO-S.hPro1.C6) (human, UniProt Q15116 25-288); assay: FACS on human PD-1 engineered cells
T1 construct: whole, on cells; also called human PD-1 engineered cells; PD-1+ cells
Method: (§1) Engineered human PD-1 expressing cells W305-CHO-S.hPro1.C6 were seeded at 1×10⁵ cells/well in U-bottom 96-well plates (COSTAR 3799). Antibodies with 3.16-fold titration in 1% BSA DPBS from 200 nM to 0.002 nM were added to the cells. The plates were incubated at 4° C. for 1 hour. After wash, […] 1:125 diluted PE-labeled goat anti-human antibody (Jackson 109-115-098) was added to each well and the plates were incubated at 4° C. for 1 hour. The binding of the antibodies onto the cells was tested by flow cytometry and the mean fluorescence intensity (MFI) was analyzed by FlowJo.

[2] = molecular target: T1, human PD-1 on engineered CHO-S cells …; assay: FACS competition: antibody titrated against human PD-L1 binding to PD-1; falling curve, half-maximal value labelled EC50 on the sheet
Method: (§2) In order to test whether the bispecific antibodies could block hPD-L1 binding to hPD-1 protein, a competitive FACS was conducted. […] Plates were incubated at 4° C. for 1 hour. After wash, the binding of W315-hPro1.ECD.mFc to cell expressive human PD-1 was detected by FITC-labeled goat anti-mouse antibody (abcam 98716 1:125). The competition binding of antibodies to the cells was tested by flow cytometry and the mean fluorescence intensity (MFI) was analyzed by FlowJo.

[3] = molecular target: T1, human PD-1 on engineered CHO-S cells …; assay: FACS on human PD-1 engineered cells; remark: listed apart in the source
Method: as §1

[4] = molecular target: T1, human PD-1 on engineered CHO-S cells …; assay: FACS competition: antibody titrated against human PD-L1 binding to PD-1; falling curve, half-maximal value labelled EC50 on the sheet; remark: listed apart in the source
Method: as §2

[5] = molecular target: T2, human PD-1 ECD mouse Fc fusion (W305-hPro1.ECD.mFc) (human, UniProt Q15116 25-170); assay: dual-binding ELISA: human PD-1 ECD coated, antibody titrated, bound antibody detected with biotinylated human CTLA-4 ECD and streptavidin-HRP
T2 construct: extracellular domain; In-house protein; also called hPD-1-ECD; human PD-1 coated on the plate
T2 sequence (Q15116 25-170): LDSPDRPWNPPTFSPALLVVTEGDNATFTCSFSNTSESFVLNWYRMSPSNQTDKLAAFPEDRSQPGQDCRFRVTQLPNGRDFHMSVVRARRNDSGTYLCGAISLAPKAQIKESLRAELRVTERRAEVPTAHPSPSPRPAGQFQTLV
Method: In order to test whether the bispecific antibodies could bind to both hPD-1 and hCTLA-4, an ELISA assay was developed as below. A 96-well ELISA plate (Nunc MaxiSorp, ThermoFisher) was coated overnight at 4° C. with 0.5 μg/ml antigen-1 (hPD-1-ECD, W305-hPro1.ECD.mFc) in carbonate-bicarbonate buffer. After a 1 hour blocking step with 2% (w/v) bovine serum albumin (Pierce) dissolved in PBS, serial dilutions of the different PD-1×CTLA-4 bispecific antibodies in PBS containing 2% BSA PBS were incubated on the plates for 1 hour at room temperature. Following the incubation, plates were washed three times with 300 μL per well of PBS containing 0.5% (v/v) Tween 20. […] After washing the plates three times, Streptavidin-HRP (Lifetechnologies, #SNN1004) (1:20000 diluted) was added and incubated on the plates for 1 hour at room temperature. After washing six times with […] per well of PBS containing 0.5% (v/v) Tween 20, 100 μL tetramethylbenzidine (TMB) substrate was added for the detection per well. The reaction was stopped after approximately 5 minutes through the addition of […] per well of 2 M HCl. The absorbance of the wells was measured at 450 nm with a multiwall plate reader (SpectraMax® M5e).

T1 sequence (Q15116 25-288, change not shown): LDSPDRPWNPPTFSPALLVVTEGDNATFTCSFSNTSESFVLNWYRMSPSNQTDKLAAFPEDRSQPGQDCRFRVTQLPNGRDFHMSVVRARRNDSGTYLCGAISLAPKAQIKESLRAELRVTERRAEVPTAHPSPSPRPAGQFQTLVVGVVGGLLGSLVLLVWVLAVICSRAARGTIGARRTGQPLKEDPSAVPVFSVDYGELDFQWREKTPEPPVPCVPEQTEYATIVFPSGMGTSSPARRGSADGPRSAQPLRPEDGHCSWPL

Row | EC50 [1] [nM] | IC50 [2] [nM] | EC50 [3] [nM] | IC50 [4] [nM] | EC50 [5] [nM] | Binder
1 | 1.74 | 1.87 |  |  |  | U6T1.G19R.IgG4, bispecific anti-PD-1 x CTLA-4 (bispecific antibody, Symmetric tetravalent format G19R; also called U6T1 in G19R format) heavy: EVQLLESGGGLVQPGGSLRLSCAASGFTFSSHAMSWVRQAPGKGLEWVSTITGGGGSIYYADSVKGRFTISRDNSKNTLYLQMNSLRAEDTAVYYCAKNRAGEGYFDYWGQGTLVTVLEDLKNVFPPEVAVFEPSEAEISHTQKATLVCLATGFYPDHVELSWWVNGKEVHSGVCTDPQPLKEQPALQDSRYALSSRLRVSATFWQNPRNHFRCQVQFYGLSENDEWTQDRAKPVTQIVSAEAWGRYGPPCPPCPAPEFLGGPSVFLFPPKPKDTLMISRTPEVTCVVVDVSQEDPEVQFNWYVDGVEVHNAKTKPREEQFNSTYRVVSVLTVLHQDWLNGKEYKCKVSNKGLPSSIEKTISKAKGQPREPQVYTLPPSQEEMTKNQVSLTCLVKGFYPSDIAVEWESNGQPENNYKTTPPVLDSDGSFFLYSRLTVDKSRWQEGNVFSCSVMHEALHNHYTQKSLSLSLGGGGGSGGGGSGGGGSGGGGSQVQLVESGGGVVQPGRSLRLSCAASGFTFSSYTMHWVRQAPGKGLEWVTFISYDGNNKYYADSVKGRFTISRDNSKNTLYLQMNSLRAEDTAIYYCARTGWLGPFDYWGQGTLVTVSSASTKGPSVFPLAPCSRSTSESTAALGCLVKDYFPEPVTVSWNSGALTSGVHTFPAVLQSSGLYSLSSVVTVPSSSLGTKTYTCNVDHKPSNTKVDKRV light 1: SYELTQPLSVSVALGQTARITCGGDNIGNKDVHWYQQKPGQAPVLVIYRDSNRPSGIPEGFSGSNSGNTATLTISRAQAGDEADYYCQVWDSIWVFGGGTKLTVLPDIQNPDPAVYQLRDSKSSDKSVCLFTDFDSQTQVSQSKDSDVYITDKCVLDMRSMDFKSNSAVAWSQKSDFACANAFQNSIIPEDTFFPSPESS light 2: not shown
2 | 1.65 | 1.96 |  |  |  | U6T1.G25.IgG4, bispecific anti-PD-1 x CTLA-4 (bispecific antibody, Symmetric tetravalent format G25; also called U6T1 in G25 format) heavy: not shown light 1: SYELTQPLSVSVALGQTARITCGGDNIGNKDVHWYQQKPGQAPVLVIYRDSNRPSGIPEGFSGSNSGNTATLTISRAQAGDEADYYCQVWDSIWVFGGGTKLTVLPDIQNPDPAVYQLRDSKSSDKSVCLFTDFDSQTQVSQSKDSDVYITDKCVLDMRSMDFKSNSAVAWSQKSDFACANAFQNSIIPEDTFFPSPESS light 2: not shown
3 | 1.81 | 1.92 | 1.42 | 1.67 | 0.107 | U6T1.G25R.IgG4, bispecific anti-PD-1 x CTLA-4 (as listed in Example 15) (bispecific antibody, kept apart; also called U6T1 in G25R format) heavy: EVQLLESGGGLVQPGGSLRLSCAASGFTFSSHAMSWVRQAPGKGLEWVSTITGGGGSIYYADSVKGRFTISRDNSKNTLYLQMNSLRAEDTAVYYCAKNRAGEGYFDYWGQGTLVTVSSASTKGPSVFPLAPCSRSTSESTAALGCLVKDYFPEPVTVSWNSGALTSGVHTFPAVLQSSGLYSLSSVVTVPSSSLGTKTYTCNVDHKPSNTKVDKRVGGGGSGGGGSQVQLVESGGGVVQPGRSLRLSCAASGFTFSSYTMHWVRQAPGKGLEWVTFISYDGNNKYYADSVKGRFTISRDNSKNTLYLQMNSLRAEDTAIYYCARTGWLGPFDYWGQGTLVTVLEDLKNVFPPEVAVFEPSEAEISHTQKATLVCLATGFYPDHVELSWWVNGKEVHSGVCTDPQPLKEQPALQDSRYALSSRLRVSATFWQNPRNHFRCQVQFYGLSENDEWTQDRAKPVTQIVSAEAWGRYGPPCPPCPAPEFLGGPSVFLFPPKPKDTLMISRTPEVTCVVVDVSQEDPEVQFNWYVDGVEVHNAKTKPREEQFNSTYRVVSVLTVLHQDWLNGKEYKCKVSNKGLPSSIEKTISKAKGQPREPQVYTLPPSQEEMTKNQVSLTCLVKGFYPSDIAVEWESNGQPENNYKTTPPVLDSDGSFFLYSRLTVDKSRWQEGNVFSCSVMHEALHNHYTQKSLSLSLGK light 1: SYELTQPLSVSVALGQTARITCGGDNIGNKDVHWYQQKPGQAPVLVIYRDSNRPSGIPEGFSGSNSGNTATLTISRAQAGDEADYYCQVWDSIWVFGGGTKLTVLGQPKAAPSVTLFPPSSEELQANKATLVCLISDFYPGAVTVAWKADSSPVKAGVETTTPSKQSNNKYAASSYLSLTPEQWKSHKSYSCQVTHEGSTVEKTVAPTECS light 2: not shown
